Drawing on ChEMBL document CHEMBL5678797, “AZD7762, a novel checkpoint kinase inhibitor, drives checkpoint abrogation and potentiates DNA-targeted therapies” (Mol Cancer Ther, 2008), this text covers Km for one protein.

Substrate in this series: NC(=O)Nc1cc(-c2cccc(F)c2)sc1C(=O)N[C@H]1CCCNC1
Conditions: Homo sapiens; Insect cell; time 20.0 min.

B1: Serine/threonine-protein kinase Chk1 (Homo sapiens), O14757 (protein)
chain: MAVPFVEDWDLVQTLGEGAYGEVQLAVNRVTEEAVAVKIVDMKRAVDCPENIKKEICINKMLNHENVVKFYGHRREGNIQYLFLEYCSGGELFDRIEPDIGMPEPDAQRFFHQLMAGVVYLHGIGITHRDIKPENLLLDERDNLKISDFGLATVFRYNNRERLLNKMCGTLPYVAPELLKRREFHAEPVDVWSCGIVLTAMLAGELPWDQPSDSCQEYSDWKEKKTYLNPWKKIDSAPLALLHKILVENPSARITIPDIKKDRWYNKPLKKGAKRPRVTSGGVSESPSGFSKHIQSNLDFSPVNSASSEENVKYSSSQPEPRTGLSLWDTSPSYIDKLVQGISFSQPTCPDHMLLNSQLLGTPGSSQNPWQRLVKRMTRFFTKLDADKSYQCLKETCEKLGYQWKKSCMNQVTISTTDRRNNKLIFKVNLLEMDDKILVDFRLSKGDGLEFKRHFLKIKGKLIDIVSSQKIWLPAT
Consider B1, for which the Km is 80 µM.
